Measured values: patent US20260035426

Sequence of recombinant human MMP9 (chain, as listed by the source): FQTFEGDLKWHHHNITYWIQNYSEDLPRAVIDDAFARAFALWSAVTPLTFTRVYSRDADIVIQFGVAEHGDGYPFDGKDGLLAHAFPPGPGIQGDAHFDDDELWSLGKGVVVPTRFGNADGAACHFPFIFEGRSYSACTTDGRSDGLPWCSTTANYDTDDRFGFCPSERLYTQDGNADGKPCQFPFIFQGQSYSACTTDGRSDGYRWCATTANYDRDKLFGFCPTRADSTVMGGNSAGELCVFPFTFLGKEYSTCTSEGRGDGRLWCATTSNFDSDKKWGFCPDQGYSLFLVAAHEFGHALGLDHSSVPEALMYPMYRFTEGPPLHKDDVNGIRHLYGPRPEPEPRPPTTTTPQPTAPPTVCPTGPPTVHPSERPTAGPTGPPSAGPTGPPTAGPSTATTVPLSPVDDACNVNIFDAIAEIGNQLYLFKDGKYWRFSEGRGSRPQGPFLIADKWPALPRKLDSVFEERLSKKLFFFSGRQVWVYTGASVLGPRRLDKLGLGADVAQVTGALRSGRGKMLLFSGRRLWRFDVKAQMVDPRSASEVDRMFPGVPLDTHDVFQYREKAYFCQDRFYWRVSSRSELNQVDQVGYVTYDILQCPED
Sequence of SB1902-C4 (chain, as listed by the source, chain 1 of 2): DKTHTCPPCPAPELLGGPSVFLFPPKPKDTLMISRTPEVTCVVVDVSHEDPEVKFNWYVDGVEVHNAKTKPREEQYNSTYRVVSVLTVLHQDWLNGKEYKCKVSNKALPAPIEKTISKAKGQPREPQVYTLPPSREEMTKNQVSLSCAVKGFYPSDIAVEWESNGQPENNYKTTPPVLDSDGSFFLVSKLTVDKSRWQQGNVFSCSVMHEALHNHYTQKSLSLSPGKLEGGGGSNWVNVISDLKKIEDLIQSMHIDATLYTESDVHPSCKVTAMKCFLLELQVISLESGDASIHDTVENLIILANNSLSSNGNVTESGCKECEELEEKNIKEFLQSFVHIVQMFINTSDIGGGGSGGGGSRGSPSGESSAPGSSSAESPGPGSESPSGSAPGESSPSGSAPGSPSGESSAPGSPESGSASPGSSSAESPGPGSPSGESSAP
Sequence of SB1902-C4 (chain, as listed by the source, chain 2 of 2): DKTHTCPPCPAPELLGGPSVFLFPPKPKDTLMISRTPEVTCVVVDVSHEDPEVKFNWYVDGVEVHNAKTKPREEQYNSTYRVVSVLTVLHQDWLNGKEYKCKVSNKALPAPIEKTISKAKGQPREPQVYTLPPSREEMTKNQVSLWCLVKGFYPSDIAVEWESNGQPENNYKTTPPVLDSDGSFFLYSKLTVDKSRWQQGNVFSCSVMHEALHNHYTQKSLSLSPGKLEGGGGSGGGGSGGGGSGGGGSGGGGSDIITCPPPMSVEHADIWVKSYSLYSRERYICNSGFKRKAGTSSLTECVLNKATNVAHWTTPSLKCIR
Sequence of SB1902-C2 (chain, as listed by the source, chain 1 of 2): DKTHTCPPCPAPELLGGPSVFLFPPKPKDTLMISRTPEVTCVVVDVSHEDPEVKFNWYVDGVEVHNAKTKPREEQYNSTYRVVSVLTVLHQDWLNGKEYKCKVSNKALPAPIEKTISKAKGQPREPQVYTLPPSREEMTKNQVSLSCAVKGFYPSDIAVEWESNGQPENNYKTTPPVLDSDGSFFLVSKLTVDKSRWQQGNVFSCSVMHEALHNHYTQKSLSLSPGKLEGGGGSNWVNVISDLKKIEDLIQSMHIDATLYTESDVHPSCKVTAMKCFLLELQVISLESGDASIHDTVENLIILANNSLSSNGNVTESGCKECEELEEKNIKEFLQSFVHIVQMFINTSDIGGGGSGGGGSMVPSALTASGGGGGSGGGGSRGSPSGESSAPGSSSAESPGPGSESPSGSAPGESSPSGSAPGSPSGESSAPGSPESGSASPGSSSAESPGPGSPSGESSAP
Sequence of SB1902-C2 (chain, as listed by the source, chain 2 of 2): as the sequence (chain, as listed by the source, chain 2 of 2) above
Sequence of SB1902-C5 (chain, as listed by the source, chain 1 of 2): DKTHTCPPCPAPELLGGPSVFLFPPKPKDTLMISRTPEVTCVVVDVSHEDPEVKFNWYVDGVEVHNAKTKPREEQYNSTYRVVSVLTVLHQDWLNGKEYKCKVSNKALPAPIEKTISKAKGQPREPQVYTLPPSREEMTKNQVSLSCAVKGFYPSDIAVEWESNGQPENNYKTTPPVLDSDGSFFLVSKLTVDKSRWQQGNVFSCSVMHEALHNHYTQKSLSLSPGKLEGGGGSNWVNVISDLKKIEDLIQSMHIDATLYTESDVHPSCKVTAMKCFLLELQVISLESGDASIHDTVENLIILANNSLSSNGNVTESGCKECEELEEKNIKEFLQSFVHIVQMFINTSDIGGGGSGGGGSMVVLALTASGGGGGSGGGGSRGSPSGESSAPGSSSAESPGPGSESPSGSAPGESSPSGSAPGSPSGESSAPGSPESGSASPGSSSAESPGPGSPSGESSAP
Sequence of SB1902-C5 (chain, as listed by the source, chain 2 of 2): as the sequence (chain, as listed by the source, chain 2 of 2) above

recombinant human MMP9 was tested. Which “in vitro protease digestion (data not shown)” value (CM8) did it give?
The value was “The other cleavable moieties (such as CM2, CM5-CM10) was also cleavable in vitro by both MMP2 and MMP9 (data not shown)”.

And the “in vitro protease digestion (data not shown)” value (CM10)?
The value was “The other cleavable moieties (such as CM2, CM5-CM10) was also cleavable in vitro by both MMP2 and MMP9 (data not shown)”.

And the “in vitro protease digestion, polyacrylamide gel” value (SB1902-C4)?
Its value is “the non-cleavable G4S linker in SB1902-C4 was resistant to both MMP2 and MMP9 enzyme digestion”.

What about the “in vitro protease digestion (data not shown)” value (CM2) of the same substance?
Its value is “The other cleavable moieties (such as CM2, CM5-CM10) was also cleavable in vitro by both MMP2 and MMP9 (data not shown)”.

What about the “in vitro protease digestion (data not shown)” value (CM9) of the same substance?
Its value is “The other cleavable moieties (such as CM2, CM5-CM10) was also cleavable in vitro by both MMP2 and MMP9 (data not shown)”.

And the “in vitro protease digestion (data not shown)” value (CM5)?
The value was “The other cleavable moieties (such as CM2, CM5-CM10) was also cleavable in vitro by both MMP2 and MMP9 (data not shown)”.

What about the “in vitro protease digestion (data not shown)” value (CM6) of the same substance?
Its value is “The other cleavable moieties (such as CM2, CM5-CM10) was also cleavable in vitro by both MMP2 and MMP9 (data not shown)”.

And the “in vitro protease digestion, polyacrylamide gel” value (SB1902-C2)?
The value was “The mutated substrate CM1 was cleavable in vitro by both MMP2 and MMP9 enzymes, with an enzyme dose-dependent manner”.

What about the “in vitro protease digestion (data not shown)” value (CM7) of the same substance?
The value was “The other cleavable moieties (such as CM2, CM5-CM10) was also cleavable in vitro by both MMP2 and MMP9 (data not shown)”.

And the “in vitro protease digestion, polyacrylamide gel” value (SB1902-C5)?
Its value is “The mutated substrate CM4 was cleavable in vitro by both MMP2 and MMP9 enzymes, with an enzyme dose-dependent manner”.
